Reference: patent publication US20260217813A1 (published 2026)

T1: IL-12 (Human IL12 (His Tag)), Sino Biological Cat. No. CT-050-H08H-20 (human, UniProt P29460 23-328; P29459 23-219)
T1 construct: Bought His-tagged p35/p40 heterodimer
T1 sequence (looked up) 1: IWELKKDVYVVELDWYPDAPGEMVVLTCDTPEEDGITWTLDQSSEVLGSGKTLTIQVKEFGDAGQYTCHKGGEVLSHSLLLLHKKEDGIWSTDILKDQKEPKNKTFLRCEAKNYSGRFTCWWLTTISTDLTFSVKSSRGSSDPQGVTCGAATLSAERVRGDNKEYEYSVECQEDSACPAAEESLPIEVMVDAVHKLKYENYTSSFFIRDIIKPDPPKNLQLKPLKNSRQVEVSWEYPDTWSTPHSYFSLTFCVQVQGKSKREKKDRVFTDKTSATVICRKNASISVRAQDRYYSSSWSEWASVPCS
T1 sequence (looked up) 2: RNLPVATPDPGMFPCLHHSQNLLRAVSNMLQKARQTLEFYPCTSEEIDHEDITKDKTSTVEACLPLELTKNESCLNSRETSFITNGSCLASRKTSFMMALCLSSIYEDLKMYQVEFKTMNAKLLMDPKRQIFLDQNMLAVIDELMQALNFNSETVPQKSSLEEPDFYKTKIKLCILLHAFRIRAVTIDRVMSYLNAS

T2: human IL-23 (IL-23-His-Biotin, Akesobio, 20161209) (human, UniProt Q9NPF7 20-189; P29460 23-328)
T2 construct: His-tagged and biotinylated; also called human IL23-His-Biotin
T2 sequence (looked up) 1: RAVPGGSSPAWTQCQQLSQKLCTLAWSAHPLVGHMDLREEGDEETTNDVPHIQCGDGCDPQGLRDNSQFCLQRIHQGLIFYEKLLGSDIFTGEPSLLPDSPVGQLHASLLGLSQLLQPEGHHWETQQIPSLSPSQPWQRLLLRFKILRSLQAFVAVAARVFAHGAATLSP
T2 sequence (looked up) 2: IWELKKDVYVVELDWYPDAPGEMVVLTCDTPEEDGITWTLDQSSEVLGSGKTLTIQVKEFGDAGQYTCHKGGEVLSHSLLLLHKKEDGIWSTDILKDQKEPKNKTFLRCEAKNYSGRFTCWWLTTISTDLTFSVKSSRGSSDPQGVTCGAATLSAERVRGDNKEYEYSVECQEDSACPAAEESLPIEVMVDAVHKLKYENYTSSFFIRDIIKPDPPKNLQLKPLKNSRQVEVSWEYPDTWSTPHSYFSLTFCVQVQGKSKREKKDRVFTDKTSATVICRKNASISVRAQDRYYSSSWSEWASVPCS


Tests used:
[1] = molecular target: T1, IL-12 (Human IL12 (His Tag)), Sino …; assay: FACS competition, IL-12-His 20 nM on 293T-IL-12RB1&IL-23R cells, antibody 10 µg/mL
Experimental: (§1) 200 μL of 1% PBSA was added into each sample, and the mixture was centrifuged at 700×g for 5 min to discard the supernatant. According to experiment design, correspondingly diluted antibody (highest final concentration of 30 μg/mL, 3-fold dilution, 8 concentrations in total) and human IL-12 (Sino Biological, Cat. No.: CT-050-H08H-20) (final concentration of 20 nM) were mixed at a ratio of 1:1, and a blank control was set. The mixture of antibody and human IL12 was incubated on ice for 30 min and then added to the cell precipitate at 100 μL/sample. The resulting mixture was well mixed and incubated on ice for 60 min. 200 μL of 1% PBSA was added, and the mixture was centrifuged at 700×g for 5 min to discard the supernatant, and then washed twice. Alexa Fluor® 488 anti-His tag antibody (Biolegend, Cat. No.: 652509) was diluted at a ratio of 1:400 and added to each tube at 100 μL. The mixture was well mixed and incubated on ice for 40 min in the absence of light. 200 μL of 1% PBSA was added, and the mixture was centrifuged at 700×g for 5 min to discard the supernatant, and then washed twice. 1% PBSA was added at 200 μL/tube, and the cells were resuspended and transferred to a flow cytometry tube for testing.

[2] = molecular target: T1, IL-12 (Human IL12 (His Tag)), Sino …; assay: FACS competition, IL-12-His 20 nM on 293T-IL-12RB1&IL-23R cells, antibody 0.04 µg/mL
Experimental: as §1

[3] = molecular target: T1, IL-12 (Human IL12 (His Tag)), Sino …; assay: FACS competition, IL-12-His 20 nM on 293T-IL-12RB1&IL-23R cells, antibody 0.12 µg/mL
Experimental: as §1

[4] = molecular target: T1, IL-12 (Human IL12 (His Tag)), Sino …; assay: FACS competition, IL-12-His 20 nM on 293T-IL-12RB1&IL-23R cells, antibody 1.11 µg/mL
Experimental: as §1

[5] = molecular target: T2, human IL-23 (IL-23-His-Biotin, …); assay: FACS competition, IL-23-His-Biotin 2 µg/mL on 293T-IL-12RB1&IL-23R cells, antibody 10 µg/mL
Experimental: (§2) 2.1. […] 200 μL of 1% PBSA was added into each sample, and the mixture was centrifuged at 700×g for 5 min to discard the supernatant. According to experiment design, correspondingly diluted antibody (highest final concentration of 30 μg/mL, 3-fold dilution, 8 concentrations in total) and human IL-23 (IL-23-His-Biotin, Akesobio, 20161209) (final concentration of 2 μg/mL) were mixed at a ratio of 1:1, and a blank control was set. The mixture of antibody and human IL23 was incubated on ice for 30 min and then added to the cell precipitate at 100 μL/sample. The resulting mixture was well mixed and incubated on ice for 60 min. 200 μL of 1% PBSA was added, and the mixture was centrifuged at 700×g for 5 min to discard the supernatant, and then washed twice. FITC Streptavidin (Biolegend, Cat. No.: 405202) was diluted at a ratio of 1:500 and added to each tube at 100 μL. The mixture was well mixed and incubated on ice for 40 min in the absence of light. 200 μL of 1% PBSA was added, and the mixture was centrifuged at 700×g for 5 min to discard the supernatant, and then washed twice. 1% PBSA was added at 200 μL/tube, and the cells were resuspended and transferred to a flow cytometry tube for testing.

[6] = molecular target: T2, human IL-23 (IL-23-His-Biotin, …); assay: FACS competition, IL-23-His-Biotin 2 µg/mL on 293T-IL-12RB1&IL-23R cells, antibody 0.04 µg/mL
Experimental: as §2

[7] = molecular target: T2, human IL-23 (IL-23-His-Biotin, …); assay: FACS competition, IL-23-His-Biotin 2 µg/mL on 293T-IL-12RB1&IL-23R cells, antibody 0.12 µg/mL
Experimental: as §2

[8] = molecular target: T2, human IL-23 (IL-23-His-Biotin, …); assay: FACS competition, IL-23-His-Biotin 2 µg/mL on 293T-IL-12RB1&IL-23R cells, antibody 1.11 µg/mL
Experimental: as §2

Row | Binder | MFI [1] | MFI [2] | MFI [3] | MFI [4] | MFI [5] | MFI [6] | MFI [7] | MFI [8]
1 | H5L9 (antibody, human IgG1, kappa, V domains shown, Humanized anti-human IL-12/IL-23 p40 antibody; IgG1 (P01857) / kappa (P01834) constant regions) VH: EVQLVQSGAEVKKPGESLKISCQSSGYSFTTYWIGWVRQMPGQGLEWIGIMSPVDSDIRYNPMFRGQVTMSVDKSSSTAYLQWSSLKASDTAMYYCARRRPGQGYFDFWGQGTMVTVSS VL: DIQMTQSPSSLSASVGDRVTITCKASQNVGSWLAWYQQKPGKAPKSLIYSASSRQSGVPSRFSGSGSGTDFTLTISSLQPEDFATYYCQQYDIYPFTFGQGTKLEIKR | 134 | 158 | 160 | 157 | 136 | 221 | 217 | 184
2 | H5L10 (antibody, human IgG1, kappa, V domains shown, IgG1/kappa) VH: EVQLVQSGAEVKKPGESLKISCQSSGYSFTTYWIGWVRQMPGQGLEWIGIMSPVDSDIRYNPMFRGQVTMSVDKSSSTAYLQWSSLKASDTAMYYCARRRPGQGYFDFWGQGTMVTVSS VL: EIVLTQSPATLSASPGERATISCRASQSVGSWLAWYQQKPGQAPRSLIYAASNLQSGIPARFSGSGSGTDFTLTISSLEPEDFAVYYCQQYNIYPYTFGQGTRLEIKR | 34.1 | 154 | 151 | 44.6 | 12.7 | 230 | 221 | 81.6
3 | H5L11 (antibody, human IgG1, kappa, V domains shown, IgG1/kappa) VH: EVQLVQSGAEVKKPGESLKISCQSSGYSFTTYWIGWVRQMPGQGLEWIGIMSPVDSDIRYNPMFRGQVTMSVDKSSSTAYLQWSSLKASDTAMYYCARRRPGQGYFDFWGQGTMVTVSS VL: EIVLTQSPATLSASPGERATISCRASQSVSSWLAWYQQKPGQAPRSLIYSASNLQSGIPARFSGSGSGTDFTLTISSLEPEDFAVYYCQQYNIYPYTFGQGTRLEIKR | 33.9 | 151 | 145 | 54.3 | 14.5 | 224 | 219 | 97.6
4 | H5L12 (antibody, human IgG1, kappa, V domains shown, IgG1/kappa) VH: EVQLVQSGAEVKKPGESLKISCQSSGYSFTTYWIGWVRQMPGQGLEWIGIMSPVDSDIRYNPMFRGQVTMSVDKSSSTAYLQWSSLKASDTAMYYCARRRPGQGYFDFWGQGTMVTVSS VL: EIVLTQSPATLSASPGERATISCRASQSVSSWLAWYQQKPGQAPRSLIYAASNRQSGIPARFSGSGSGTDFTLTISSLEPEDFAVYYCQQYNIYPYTFGQGTRLEIKR | 32.4 | 149 | 133 | 38.5 | 12.7 | 234 | 211 | 88.5
5 | H5L14 (antibody, human IgG1, kappa, V domains shown, IgG1/kappa) VH: EVQLVQSGAEVKKPGESLKISCQSSGYSFTTYWIGWVRQMPGQGLEWIGIMSPVDSDIRYNPMFRGQVTMSVDKSSSTAYLQWSSLKASDTAMYYCARRRPGQGYFDFWGQGTMVTVSS VL: EIVLTQSPATLSASPGERATISCRASQSVSSWLAWYQQKPGQAPRSLIYAASNLQSGIPARFSGSGSGTDFTLTISSLEPEDFAVYYCQQYNIYPFTFGQGTRLEIKR | 46.3 | 155 | 146 | 66 | 16.7 | 216 | 203 | 95.6
6 | ustekinumab (trade name Stelara) (antibody, V domains shown) VH: EVQLVQSGAEVKKPGESLKISCKGSGYSFTTYWLGWVRQMPGKGLDWIGIMSPVDSDIRYSPSFQGQVTMSVDKSITTAYLQWNSLKASDTAMYYCARRRPGQGYFDFWGQGTLVTVSS VL: DIQMTQSPSSLSASVGDRVTITCRASQGISSWLAWYQQKPEKAPKSLIYAASSLQSGVPSRFSGSGSGTDFTLTISSLQPEDFATYYCQQYNIYPYTFGQGTKLEIK | 31 | 150 | 137 | 31.9 | 11.5 | 216 | 211 | 121
